The numbers were not newly measured in article PMC10680782, which cites them from elsewhere.

For orientation: Kd means the concentration at which binding is half-saturated.

The target in this data set is VE-cadherin (Homo sapiens) (UniProt P33151).
Sequence of UniProt P33151 (P33151 48-599): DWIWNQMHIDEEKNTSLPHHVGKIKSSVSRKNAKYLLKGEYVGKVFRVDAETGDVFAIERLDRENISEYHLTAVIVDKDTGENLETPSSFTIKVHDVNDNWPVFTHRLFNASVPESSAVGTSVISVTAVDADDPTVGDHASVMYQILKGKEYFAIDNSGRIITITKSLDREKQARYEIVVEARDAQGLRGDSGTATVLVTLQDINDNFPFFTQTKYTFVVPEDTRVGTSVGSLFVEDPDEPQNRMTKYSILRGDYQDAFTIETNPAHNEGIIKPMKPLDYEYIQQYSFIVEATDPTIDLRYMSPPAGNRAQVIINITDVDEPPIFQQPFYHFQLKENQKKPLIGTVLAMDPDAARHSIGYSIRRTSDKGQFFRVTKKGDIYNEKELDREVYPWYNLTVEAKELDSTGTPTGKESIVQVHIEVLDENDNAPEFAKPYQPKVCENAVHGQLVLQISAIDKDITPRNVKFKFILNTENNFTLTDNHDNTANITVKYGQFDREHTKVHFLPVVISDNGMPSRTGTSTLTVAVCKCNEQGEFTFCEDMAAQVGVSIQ

For “fibrin β15-42 fragment 15-42 (from UniProt P02675)”, the equilibrium dissociation constant (Kd) is 267 µM.
